# Reference: patent publication US20250145729A1 (DENALI THERAPEUTICS, published 2025)
# Positions count from the first letter of the chain named.
# B1: LLB2-10-8-d2 BV (Fc fusion)
# chain: APELLGGPSVFLFPPKPKDTLMISRTPEVTCVVVDVSHEDPEVKFNWYVDGVEVHNAKTKPREEQYNSTYRVVSVLTVLHQDWLNGKEYKCKVSNKALPAPIEKTISKAKGQPREPQVYTLPPSRDELTKNQVSLTCLVKGFYPSDIAVLWNSRFVLENNYKTTPPVLDSDGSFFLYSKLTVDKSRWQQGEVFACNVYHEALHNHYTFKNLSLSPGK
# notes: Fc part only; changes read against LLB2-10-8; BV = bivalent
# B2: LLB2-10-8-d7 BV (Fc fusion)
# chain: B1 chain with R154H, F155Y, V156E, V192I
# notes: as for B1
# B3: LLB2-10-8-d12 BV (Fc fusion)
# chain: B1 chain with R154H, F155Y, V156E, E191N, S212A
# notes: Fc part only; BV = bivalent
# B4: LLB2-17 (Fc fusion)
# chain: B1 chain with A148S, V156A, N159D, Y161T, V192I, Y198L, S212A
# notes: Fc part only
# B5: LLB2.10.8.10.8.N (Fc fusion)
# chain: B1 chain with E191N, V192I, S212H
# notes: Fc part only; changes read against LLB2-10-8
# B6: LLB2-10-8-d13 BV (Fc fusion)
# chain: B1 chain with R154Q, F155Y, V156E, V192I
# notes: as for B1
# B7: LLB2-10-8-d5 BV (Fc fusion)
# chain: B1 chain with E191N
# notes: as for B1
# B8: LLB2-10-8-d18 BV (Fc fusion)
# chain: B1 chain with R154Q, F155Y, V156E, E191N, S212A
# notes: Fc part only; BV = bivalent
# B9: LLB2-10-8-d15 BV (Fc fusion)
# chain: B1 chain with R154Q, F155Y, V156E, S212A
# notes: as for B1
# B10: LLB2.10.8.9.11.N (Fc fusion)
# chain: B1 chain with E191N, V192T, S212A
# notes: Fc part only
# B11: LLB2-10-11 (Fc fusion)
# chain: B1 chain with V156L, V192I, S212A
# notes: Fc part only
# B12: LLB2-10-8-d4 BV (Fc fusion)
# chain: B1 chain with E191N, V192I
# notes: as for B1
# B13: LLB2-12 (Fc fusion)
# chain: B1 chain with V156S, E191N, V192I, Y198L, N204S
# notes: Fc part only
# B14: LLB2-24 (Fc fusion)
# chain: B1 chain with A148E, S153T, N159T, Y161A, V192I, Y198L, Y206F, S212A
# notes: Fc part only
# B15: LLB2-30 (Fc fusion)
# chain: B1 chain with R154Q, V156L, E191N, V192I, S212Q
# notes: Fc part only
# B16: LLB2-10-12 (Fc fusion)
# chain: B1 chain with V192I, S212Q
# notes: Fc part only
# B17: LLB2.10.8.10.3.N (Fc fusion)
# chain: B1 chain with E191N, V192I, S212R
# notes: as for B5
# B18: LLB2-13 (Fc fusion)
# chain: B1 chain with R154Q, V156L, E191N, V192I, Y198L
# notes: Fc part only
# B19: LLB2.10.8.4.12.N (Fc fusion)
# chain: B1 chain with E191N, V192I, Y206W, S212R
# notes: as for B5
# B20: LLB2-10-8-d14 BV (Fc fusion)
# chain: B1 chain with R154Q, F155Y, V156E
# notes: as for B1
# B21: LLB2-10-8-d9 BV (Fc fusion)
# chain: B1 chain with R154H, F155Y, V156E, S212A
# notes: as for B1
# B22: LLB2-23 (Fc fusion)
# chain: B1 chain with A148V, N159Q, Y161V, V192I, Y198L, S212V
# notes: Fc part only
# B23: LLB2-21 (Fc fusion)
# chain: B1 chain with A148D, V156L, N159T, Y161T, V192I, Y198L, S212K
# notes: Fc part only
# B24: LLB2.10.8.10.1.N (Fc fusion)
# chain: B1 chain with E191N, V192I, S212K
# notes: as for B5
# B25: LLB2-37 (Fc fusion)
# chain: B1 chain with R154Q, V156H, E191N, V192I, S212L
# notes: Fc part only
# B26: LLB2-10-8-d17 BV (Fc fusion)
# chain: B1 chain with R154Q, F155Y, V156E, E191N
# notes: as for B1
# B27: LLB2-10-8-d16 BV (Fc fusion)
# chain: B1 chain with R154Q, F155Y, V156E, E191N, V192I
# notes: as for B1
# B28: LLB2-31 (Fc fusion)
# chain: B1 chain with R154Q, E191N, V192I, S212A
# notes: Fc part only
# B29: LLB2-20 (Fc fusion)
# chain: B1 chain with A148V, N159D, Y161V, E191A, V192I, Y198L, Y206H, S212V
# notes: Fc part only
# B30: LLB2-10-8-d11 BV (Fc fusion)
# chain: B1 chain with R154H, F155Y, V156E, E191N
# notes: as for B1
# B31: LLB2-10-8-d6 BV (Fc fusion)
# chain: B1 chain with E191N, S212A
# notes: Fc part only; BV = bivalent
# B32: LLB2-10-8-d10 BV (Fc fusion)
# chain: B1 chain with R154H, F155Y, V156E, E191N, V192I
# notes: as for B1
# B33: LLB2-10-9 (Fc fusion)
# chain: B1 chain with A148V, V192I, S212A
# notes: Fc part only
# B34: LLB2-11 (Fc fusion)
# chain: B1 chain with V156S, E191N, V192I, Y198M
# notes: Fc part only
# B35: LLB2-10-8-d8 BV (Fc fusion)
# chain: B1 chain with R154H, F155Y, V156E
# notes: as for B1
# B36: LLB2-10-13 (Fc fusion)
# chain: B1 chain with R154Q, V156L, V192I, S212Q
# notes: Fc part only
# B37: LLB2-18 (Fc fusion)
# chain: B1 chain with A148V, V156A, N159Q, Y161V, E191Q, V192I, Y198L, Y206L, S212V
# notes: Fc part only
# B38: LLB2-10-10 (Fc fusion)
# chain: B1 chain with R154Q, V192I, S212A
# notes: Fc part only
# B39: LLB2-10-8-d3 BV (Fc fusion)
# chain: B1 chain with S212A
# notes: Fc part only; BV = bivalent
# Target: T1, cyno CD98hc (cynomolgus monkey)
# T1 construct: also called cynomolgus CD98hc; cyCD98hc
# Experiment: SPR (Biacore)
# Method in brief: (§1)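 Binding affinity (Kd) of the engineered Fc polypeptides for CD98hc was measured by surface plasmon resonance on a Biacore instrument. Clones were cloned, expressed and purified as Fc-Fab fusions carrying anti-BACE1 Fabs. They were tested in a bivalent format or in a monovalent knob/hole format with the CD98hc-binding site on the knob chain only. The text gives no concentrations, temperature, buffer or replicate numbers.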
row,Binder,Kd [µM]
1,B1,2.3
2,B2,2
3,B3,5.97
4,B4,9.2
5,B5,2.2
6,B6,2.6
7,B7,5.5
8,B8,3.01
9,B9,4.6
10,B10,4.5
11,B11,1.2
12,B12,2.6
13,B13,5
14,B14,6.2
15,B15,2
16,B16,1.2
17,B17,2
18,B18,3.8
19,B19,0.7
20,B20,4.05

row,Binder,Kd [µM]
1,B21,4.2
2,B22,2.6
3,B23,2.3
4,B24,1.8
5,B25,2.8
6,B26,4.1
7,B27,2.5
8,B28,2.1
9,B29,5.5
10,B30,7.2
11,B31,5.3
12,B32,4.2
13,B33,1.3
14,B34,8.2
15,B35,3.5
16,B36,1.1
17,B37,9.1
18,B38,1.1
19,B39,2.6

# Target: T2, human CD98hc (human, UniProt P08195 109-529)
# T2 construct: also called huCD98hc; CD98 heavy chain
# T2 sequence: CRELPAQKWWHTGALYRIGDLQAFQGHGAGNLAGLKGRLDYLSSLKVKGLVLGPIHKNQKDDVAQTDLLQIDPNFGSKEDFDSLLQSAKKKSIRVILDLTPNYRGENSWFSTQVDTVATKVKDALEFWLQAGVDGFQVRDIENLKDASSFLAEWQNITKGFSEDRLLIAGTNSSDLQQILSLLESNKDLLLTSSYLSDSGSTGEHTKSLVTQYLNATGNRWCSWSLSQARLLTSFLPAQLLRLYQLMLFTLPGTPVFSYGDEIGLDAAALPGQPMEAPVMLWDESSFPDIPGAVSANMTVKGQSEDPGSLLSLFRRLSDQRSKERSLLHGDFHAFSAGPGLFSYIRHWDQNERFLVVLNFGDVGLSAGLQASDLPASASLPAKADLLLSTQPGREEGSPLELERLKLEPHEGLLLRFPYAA
# Experiment: SPR (Biacore)
# Method in brief: as §1
row,Binder,Kd [µM]
1,B1,0.49
2,B2,0.41
3,B3,2.1
4,B4,2
5,B5,0.65
6,B6,0.65
7,B7,1.47
8,B8,0.88
9,B9,1
10,B10,1.2
11,B11,0.23
12,B12,0.67
13,B13,0.99
14,B14,1.1
15,B15,0.45
16,B16,0.21
17,B17,0.49
18,B18,0.85
19,B19,0.14
20,B20,0.96

row,Binder,Kd [µM]
1,B21,0.84
2,B22,0.5
3,B23,0.42
4,B24,0.5
5,B25,0.61
6,B26,0.96
7,B27,0.65
8,B28,0.64
9,B29,1.2
10,B30,2.4
11,B31,1.48
12,B32,1.4
13,B33,0.25
14,B34,1.3
15,B35,0.82
16,B36,0.26
17,B37,1.8
18,B38,0.22
19,B39,0.49
